We go through one substance from patent publication US20100272685A1.

Assay [1] concerns the target AAV2/5 vector particle (AAV5 capsid proteins VP1, VP2, VP3) (adeno-associated virus 5). Nature of the assay: cell-based or functional assay.
Assay [2] addresses AAV2/po1 hybrid vector particle (AAVpo1 capsid of VP1, VP2, VP3) (porcine adeno-associated virus AAVpo1). Nature of the assay: cell-based or functional assay.

Where only a bound is given, the exact number is not on record here.

Consider “Pooled Human Ig (Immune Globulin Intravenous (Human) Carimune NF)”, for which the concentration of the pooled Human Ig required to neutralise >50% of AAV-LacZ particles in assay [1] is 7.5e-05 mg/mL; in assay [2], > 12 mg/mL.
